Data published in article PMC10921949, “Multivalent coiled-coil interactions enable full-scale centrosome assembly and strength” (The Journal of Cell Biology, 2024).
Positions count from the first letter of the chain named.

B1: SPD-5(541–677) (domain or fragment, C. elegans, UniProt P91349 541-677, looked up)
chain: SQSHIPILHDMQQILDSSAMFLEGQHDVAVNVEQMQEKMSQIREALARLFERLKSSAALFEEILERMGSSDPNADKIKKMKLAFETSINDKLNVSAILEAAEKDLHNMSLNFSILEKSIVSQAAEASRRFTIAPDAE
notes: Used alone and after incubation with kinase-dead PLK-1 (unphosphorylated); also called helical hairpin; source: Arctic Express bacteria, purified (Ni-NTA, Superdex 75 size exclusion)
B2: SPD-5(541–677) phosphorylated by PLK-1(CA) (domain or fragment, C. elegans, UniProt P91349 541-677, looked up)
chain: B1 chain
modifications: phosphorylated by PLK-1 (verified by gel migration shift and MS); sites of this sample not listed in the text
notes: also called phosphorylated hairpin; source: Arctic Express bacteria, purified (Ni-NTA, Superdex 75 size exclusion); then incubated with PLK-1(CA)
B3: SPD-5(541–677) R592K (domain or fragment, C. elegans, UniProt P91349 541-677, looked up)
chain: B1 chain with R52K
notes: source: purified

Molecular target: the molecule itself
Assay: mass photometry; 50 nM SPD-5(541–677) in PBS on a glass coverslip (TwoMP, Refeyn), alone or after 20 min with 20 nM PLK-1(KD) or PLK-1(CA); dimers seen down to 10 nM

| Protein | stoichiometry N |
| --- | --- |
| B1 | 2 |
| B2 | 2 |
| B3 | 2 |
